For 1 molecule, Kd results are on record in paper PMC9403556 (STAR Protocols, 2022).

The term Kd denotes the free concentration of one partner at which half of the binding sites on the other are occupied at equilibrium, for simple one-to-one binding.

The target in the test is T1, human eIF5-mimic protein 1 (h5MP1), wild type, untagged (human, UniProt Q9Y6E2 1-419).
T1 sequence (looked up): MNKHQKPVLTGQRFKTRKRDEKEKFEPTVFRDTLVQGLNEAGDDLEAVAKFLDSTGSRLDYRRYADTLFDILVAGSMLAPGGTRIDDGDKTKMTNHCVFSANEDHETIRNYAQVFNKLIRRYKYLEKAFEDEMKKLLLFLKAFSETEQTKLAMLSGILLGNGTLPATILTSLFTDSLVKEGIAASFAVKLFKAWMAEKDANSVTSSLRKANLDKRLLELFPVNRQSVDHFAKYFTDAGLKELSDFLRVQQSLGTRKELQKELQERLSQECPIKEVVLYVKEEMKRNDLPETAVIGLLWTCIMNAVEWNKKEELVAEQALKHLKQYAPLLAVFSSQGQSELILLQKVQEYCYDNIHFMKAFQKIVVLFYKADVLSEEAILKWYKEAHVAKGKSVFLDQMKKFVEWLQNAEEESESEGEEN
The experiment in a line: ITC. In general terms: In ITC the heat of successive injections is recorded.

B1: heIF2β_(53-136), GB1- and His-tags removed (domain or fragment, human, UniProt P20042 53-136, looked up)
chain: DLEADEEDTRKKDASDDLDDLNFFNQKKKKKKTKKIFDIDEAEEGVKDLKIESDVQEPTEPEDDLDIMLGNKKKKKKNVKFPDE
B1 came in with a Kd of 5 µM.
